Data reported in the supplement of paper PMC9170038.

system: K4 kissing-loop RNA reporter; assay: apparent KD of K4 kissing-loop reporter; higher = weaker reporter binding; conditions: Eterna round: R107; input ligand: arginine 13.2 mM
Method: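 RNA-MaP round R107: designed RNA switches with theophylline, tryptophan, arginine or FMN aptamers are transcribed on-chip within common flanks. They are titrated with a labelled K4 kissing-loop RNA reporter in RNA-MaP buffer (100 mM Tris pH 7.5, 80 mM KCl, 4 mM MgCl2), without ligand or with the indicated ligand. Median apparent KD per design.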
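Note: bound reporter read as fluorescence of individual clusters on recovered sequencing chips by microscopy, with normalized cluster intensities fitted with a binding model.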

Sequence | apparent KD of K4 kissing-loop reporter
AAUGUACAGGGAAGGAGCGUAGUCCAGUGAUGUUGGAAUUAAAUUCCUGCGAUGUUGGUUAUACAGGUAGGUCGCCCUAAAGUGC [KL-XARG-B22] | 351 nM
CCCGGGUCGUCAGGAUAUGAGUGCAGUGAUGUUGCACGGGUCUUUGCAGGCCCUGGUGAGGCGUACUCAGAAGGGACGCCAGGUC [Atazazaed] | 124 nM
UAAGAAUAAGUAGCAGUGAUGUUGCUACUGCGAGGACCGGUACGGCCGCCACUCGAGUCCUCGAAGCAUCACUGAACGAGGAAUA [whbob_SS_Tryp_A_m12] | 229 nM
GCCUAGCAGGGAAGGAGCGCCAUAUAAUUAAAAGUUAAUUAAUGAGUGAUGUUCAAAUAAUGGCAGGUAGGUCGCCCUGCUAGGC [KL-SSArg B9] | 289 nM
AAGUAGCUCUCGGCCGCCACUCCUCAGUGAUGUUGAGAUAUUAAGAGCCAAUUGGCUCAUAUAAAGAGGACCGGGAGAGCUACAA [AK4 SS Tryptophan B] | 276 nM
AGACUACCACACUGUCAAUAGACAGUGGACUAGGAUAUGCUGAUAAGCAGAAGGAGUGAUGUUCCAAGGUAGUCAAUAAAAUAAU [FmnAX 13 G28+A66] | 257 nM
GCCUUAUAUCGAGCUACAGCUCGAUUUGGUCGAGGACCGGUACGGCCGCCACUCGAAUGAUAGUGAUGUUAUCAUUAUGGCCUAA [JR_ExcTryptoA_Sub022] | 137 nM
AUUAGGCGAAGUGAUGUUUCAUAUAAUGGCAAGGAUAUGUCCUUACACAGAAGGUGCUCUUAGUCAGGUUAUAUUAGGACUGCUA [theeternabot_exclusion_KL_FMN_A_42] | 434 nM
GCCGUAGAUUGAAGGAGCGGGAUAGAGAAAGUGAUGUUUUCUCUUUGACGGCGUCCUCGAUCCCAGGUAGGUCGCAAUCUACGGC | 75.2 nM
AUAAACUUGCAGUGAUGUUGCAAGUGAGACUAGGAUAUCAGGAAGCUGAGAAGGAGUCAUCUCCUUCAGACAUCACUAUGAAGGA [whbob_SS_FMNA__2th179] | 191 nM
AAGCAGUCACUCGAACCCAUCGAAGAUGGUCGAGGACCGGUACGGCCGCCACUCGGAGUGAUGUUCCGCAGACUGCAAAAUAAAA | 464 nM
ACCUAGUACGUAGGAUAUCGAACAUCAUUUAGUGAGAUCGAGUGAUGUUCGAUCACGUCUUCAGUUCGAGAAGGACGUACUAGGA [FMN B SS t4] | 273 nM
UCCUGCAAUCGUCCACGAAAGUGGAUUGAUACCAGAGUCGAAAGACUCCCUUGGCAGCGAGUGAUGUUCGAAGCAGGUAAAUAAA | 365 nM
GCCAGUGAUGUUGGCAUUUCGAGCCAUGAAGGAGCGCACGGAAGUGCAGGUAGGUCGCAUGGUACUUAAGAUAUUAUCCUAAGUA [Atceis] | 162 nM
CGCAGUGAUGUUGCGAGUAGCUACAGGGAAGGAGCGUGCUAGAGCACAGGUAGGUCGCCCAGUGGCAGUGAUGUUGCCAAAGGGU [Exclusion ARginine A GF 17] | 119 nM
AACGCAAGUUGUCUGGUAGACAUUUCAGAUACCAGACAUAGUGAUGUCCCUUGGCAGCUGAACAUCCAGUGAUGUUGGAUACGUU [Theo A SS t11a] | 394 nM
GGUGCUGUCUGUGCCGCCCUCCUCGUUCCUCGAGGACCGGUACGGCCGCCACUCGAGUGAUGUUUGGGUAGCGAUCCCUGCUAGC [Bdazzled - #16 Exc. Tryptophan A] | 719 nM

Sequence | apparent KD of K4 kissing-loop reporter
UAUAUAGUGAUGUUAUAUAUACAUUCGGAAGGAGCGUGGUAAAACACAGGUAGGUCGCUGAAAUAAUUAAAAUAAUUUUCUUUUU [AstrosSSArgA#1] | 231 nM
UACAAUUUGGCGGCCGCCACUGACCAUAGCCUUCGAUGGCCAGUGAUGUUGGCCUCUGGCUCUAACAGGACCGGGCCAAAUUAUG [Maeste] | 216 nM
AACCGUGUGGCGGCCGCCACUAGUCUCCAGUGAUGUUGGAGAGAUCACGUAAGUGAUCUCCGACAUAGGACCGGGCCAUAUGGAA [Same State - Tryptophan B (Freestyle 24)] | 152 nM
GGCCGGAAGGCGAGCGCUCCCACUCCGGAAGGAGCGCCCGCAAGGGCAGGUAGGUCGCCGGAGUGAUGUUCCGGUGGAGGGCUCG [#2 Exclusion - Arginine A Attempt #20 (Inspired by Omei)] | 308 nM
GGAUAGGACAUAGGAUAUGGGCUAGGCAAGAAUAACUUGUCUAGCAAAUCCAUGAGGAGUGAUGUUCCAGAAGGGUGUCCUAUCG [FmnBX 1 U11+G75] | 105 nM
GCAGUGAUGUUGCGGAUGUACAGUGGGAUACGAGGACCGGUACGGCCGCCACUCGUACAGAACAAGCUAAUACAUCGAUAGGUGA [XII] | 281 nM
GCAGUGAUGUUGCGGAUGUACAGUGGCGUGCGAGGACCGGUACGGCCGCCACUCGUACAGCACAAGCUAAUACAUCGAUAGGUGA [whbob_SS_Tryp_A_m2] | 287 nM
UGCGCUGUGUACUGAAAUGUUAUGCGGGAUACCAGAGUCUUUUUAUUCCCUUGGCAGCUUGAGUGAUGUUUGAUGCCGUUCUUGU [po,,mmullin] | 256 nM
GUCUCGAGUGAUGUUCGGGUCGAUUGGGAAGGAGCGCCCGGAAGGGCAGGUAGGUCGCCCGGACCGCGCGGGCAACCGCGCGGCC [#2 Same State - Arginine A Attempt #11 (HarryS)] | 108 nM
GCCAUCAGGUCGCAAGACCUGAUAGCCGAUACCAGCGCGAAGGUGCGCCCUUGGCAGCGGCACCGAGUGAUGUUCGGUCAGGCGG [#2 Same State - Theophylline A Attempt #3 (HarryS)] | 490 nM
CUUAAGGAGUGUCGUGCCGGACACUGGGAAGGAGCGCAAUUCUUUGCAGGUAGGUCGCCCAGUGAUGUUGGGUGGCGCUGUCGAA [Laatonbi] | 156 nM
GCGAACAUUCGCAGUGAUGUUGCGACGGAAGGAGCGCGUGAAAACGCAGGUAGGUCGCCGACAAAAUUAAUUUUAAUGUGUUCGC [Arginine A K4 27] | 440 nM
UGUGUUGUUGUGAUGUUUAGUGUUGUUGGGCAGGAUAUCGUAGAGGCGAGAAGGGCUUGUGUGCUGUAUGAGUGAUGUUUGUAGG [xrrxmullin] | 238 nM
AGAACUGUCUGAGAUACCAGCCAUAGGAGUGAUGUUCCUAGCUCCACAAAGUGGAGCCAUGGCCCUUGGCAGCUCAGACAGUUCA [Omei KL Theo B SS A v8] | 191 nM
AAAAUAAACCAGUGAUGUUGGUGUCCAGAUACCAGCGACAAAAGUCGCCCUUGGCAGCUGUGGACGUACAAAAUAAGUACGUCCU [MatMod 1 - Jieux - Same State - Theophylline A] | 271 nM
AGGUCCGAGCCCGUAAGGGCUCGGACCUGUUAGGAUAUGACGUUAUUCAGAAGGGAUGGGUGGAGUGAUGUUCCACCCGCAAGGG [#2 Same State - FMN A Attempt #10 (HarryS)] | 102 nM

same assay, conditions: Eterna round: R107; input ligand: none

Sequence | apparent KD of K4 kissing-loop reporter
UUAUCUAUAUUCGAUACCAGUACCCUGUGUGUUGAUCCUUUUAUAAGUGAUGUUUAUGAGUACCCUUGGCAGCGGGUAUGGGUUU [KL-XTheo-B17] | 883 nM
GGGAGUAGUGCGGCCGCCACUGAGAAAGAAGAAGAAUAUAGUGAUGUUAUAUAGGAAGGGAAGAACAGGACCGGGCAUUAGAUUU [SSTRyptB.Y] | 380 nM
UGUGAACAAAAGUAGAGUGGACCACUAUAGCGAGGACCGGUACGGCCGCCACUCGUGUAUGAAUUCAGUGAUGUUGAAAAGAGCU [whbob_EX_Tryp_A_t11] | 138 nM
CAUACGCAUGGAGGAUAUGAGAUUACUCAUAUCAUUUAAUAUUCUCAGUGAUGUUGAGAUUUAAACUCAGAAGGCCAUGUGUAUG [Ex FMN B 12] | 358 nM
AAACAUCACUGGGAGUGAUGUUCUCAGUGACGAGGACCGGUACGGCCGCCACUCGCGAGAGAUAUAAAUGAGUAAUGACAUCAUU [Excl Tryptophan A V2] | 280 nM
UACUGGGCGAGUGAUGUUCGCUCACGUGAUACCAGUGCCAUCCAACACCCUUGGCAGCACGCGGGCAGUGAUGUUGUCCUUGUAU [Exclusion Theophylline A GF 5] | 123 nM
GCCGUAGAUUGAAGGAGCGUUCUUCAGCAAACUUGCAGUGAUGUUGCAUUAAACAUGUAAGAACAGGUAGGUCGCAAUCUACGGC | 155 nM
CUAACGGUACGAGUGAUGUUCAGCAAGGAUACCAGCGGACAGUCACGCCCUUGGCAGCCUAGUUUCUACCCGUCGGAAUUUCUUA [theeternabot_sameState_KL_Theo_A_2] | 599 nM
UUUGUAUAGGGAAGGAGCGUGAAUGAUAAUGAAUAUAGUGAUGUUAUAUAGAAGAAAGAAUCACAGGUAGGUCGCCCGGAGGAGG [SSArgB.I] | 1000 nM
GGGCGCGGCGCGGCCGCCACUGGGCCUGGGCGCGCGCCGAGUGAUGUUCGCCUGCGGCUGGGUCGUAGGACCGGGUGCCGGCUGG [BDazzled 1] | 311 nM
AAUGUACAGGGAAGGAGCGUAGUCCAGUGAUGUUGGAAUUAAAUUCCUGCGAUGUUGGUUAUACAGGUAGGUCGCCCUAAAGUGC [KL-XARG-B22] | 436 nM
CCCGGGUCGUCAGGAUAUGAGUGCAGUGAUGUUGCACGGGUCUUUGCAGGCCCUGGUGAGGCGUACUCAGAAGGGACGCCAGGUC [Atazazaed] | 145 nM
UAAGAAUAAGUAGCAGUGAUGUUGCUACUGCGAGGACCGGUACGGCCGCCACUCGAGUCCUCGAAGCAUCACUGAACGAGGAAUA [whbob_SS_Tryp_A_m12] | 278 nM
GCCUAGCAGGGAAGGAGCGCCAUAUAAUUAAAAGUUAAUUAAUGAGUGAUGUUCAAAUAAUGGCAGGUAGGUCGCCCUGCUAGGC [KL-SSArg B9] | 329 nM
AAGUAGCUCUCGGCCGCCACUCCUCAGUGAUGUUGAGAUAUUAAGAGCCAAUUGGCUCAUAUAAAGAGGACCGGGAGAGCUACAA [AK4 SS Tryptophan B] | 357 nM
AGACUACCACACUGUCAAUAGACAGUGGACUAGGAUAUGCUGAUAAGCAGAAGGAGUGAUGUUCCAAGGUAGUCAAUAAAAUAAU [FmnAX 13 G28+A66] | 309 nM
GCCUUAUAUCGAGCUACAGCUCGAUUUGGUCGAGGACCGGUACGGCCGCCACUCGAAUGAUAGUGAUGUUAUCAUUAUGGCCUAA [JR_ExcTryptoA_Sub022] | 183 nM
AUUAGGCGAAGUGAUGUUUCAUAUAAUGGCAAGGAUAUGUCCUUACACAGAAGGUGCUCUUAGUCAGGUUAUAUUAGGACUGCUA [theeternabot_exclusion_KL_FMN_A_42] | 460 nM
GCCGUAGAUUGAAGGAGCGGGAUAGAGAAAGUGAUGUUUUCUCUUUGACGGCGUCCUCGAUCCCAGGUAGGUCGCAAUCUACGGC | 81.2 nM
AUAAACUUGCAGUGAUGUUGCAAGUGAGACUAGGAUAUCAGGAAGCUGAGAAGGAGUCAUCUCCUUCAGACAUCACUAUGAAGGA [whbob_SS_FMNA__2th179] | 251 nM
AAGCAGUCACUCGAACCCAUCGAAGAUGGUCGAGGACCGGUACGGCCGCCACUCGGAGUGAUGUUCCGCAGACUGCAAAAUAAAA | 426 nM
